We go through 94 variants from the supplement of paper PMC10567573.

B1: ZNF649 (parent)
chain: DECEKAYFYMSCLVKHKRIHSREK
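Further: lentivirally expressed fusions sorted by FACS into six bins by GFP to DsRed ratio, PSI derived from sequencing read proportions per bin multiplied by bin number.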

The variants in this data set derive from B1. Description: protein stability index of a GFP-peptide fusion (GPS, HEK-293T) (PSI 1-6); higher = more stable. The note with it: c terminus: a fixed tail appended.
Consider DECEKAYCYMSCLVKHKRIHSREK [F8C], for which the protein stability index turned out to be 2.96. The same measure for DECEKAYNYMSCLVKHKRIHSREK [F8N]: 3.7; for DECEKAYMYMSCLVKHKRIHSREK [F8M]: 3.36; for DECEKAYYYMSCLVKHKRIHSREK [F8Y]: 2.65. With DECEKAYEYMSCLVKHKRIHSREK [F8E], the protein stability index is 4.18.

As for DECEKAYWYMSCLVKHKRIHSREK [F8W], the protein stability index was 3.07. As for DECEKAYDYMSCLVKHKRIHSREK [F8D], the figure is 3.88; as for DECEKAYKYMSCLVKHKRIHSREK [F8K], 3.6; as for DECEKAYVYMSCLVKHKRIHSREK [F8V], 3.23. In the case of DECEKAYRYMSCLVKHKRIHSREK [F8R], the protein stability index is 2.82. Take DECEKAYTYMSCLVKHKRIHSREK [F8T]: the protein stability index amounted to 3.52. For the variant DECEKAYAYMSCLVKHKRIHSREK [F8A], the protein stability index came out at 3.44.

With DECEKAYGYMSCLVKHKRIHSREK [F8G], the protein stability index was determined as 4.02.

On to DECEKAYSYMSCLVKHKRIHSREK [F8S], for which the protein stability index came out at 3.78. As for DECEKAYQYMSCLVKHKRIHSREK [F8Q], the figure is 3.75. The same measure for DECEKAYHYMSCLVKHKRIHSREK [F8H]: 3.79; for DECEKAYIYMSCLVKHKRIHSREK [F8I]: 2.67.

As for DECEKAYLYMSCLVKHKRIHSREK [F8L], the protein stability index was found to be 2.48. As for DECEKAYPYMSCLVKHKRIHSREK [F8P], the figure is 4.1; as for DECEKAKFYMSCLVKHKRIHSREK [Y7K], 3.57; as for DECEKADFYMSCLVKHKRIHSREK [Y7D], 4.07. As for DECEKAAFYMSCLVKHKRIHSREK [Y7A], the figure is 3.53; as for DECEKAHFYMSCLVKHKRIHSREK [Y7H], 3.35; as for DECEKAQFYMSCLVKHKRIHSREK [Y7Q], 3.99.

Regarding DECEKAWFYMSCLVKHKRIHSREK [Y7W], the protein stability index stood at 2.25. As for DECEKAGFYMSCLVKHKRIHSREK [Y7G], the figure is 3.38. As for DECEKAPFYMSCLVKHKRIHSREK [Y7P], the protein stability index was 3.54. The same measure for DECEKALFYMSCLVKHKRIHSREK [Y7L]: 2.26; for DECEKASFYMSCLVKHKRIHSREK [Y7S]: 3.3. As for DECEKAIFYMSCLVKHKRIHSREK [Y7I], the figure is 2.23; as for DECEKAVFYMSCLVKHKRIHSREK [Y7V], 2.68; as for DECEKACFYMSCLVKHKRIHSREK [Y7C], 3.25.

As to DECEKAMFYMSCLVKHKRIHSREK [Y7M], the protein stability index was 2.19.

With DECEKATFYMSCLVKHKRIHSREK [Y7T], the protein stability index was 3. The same measure for DECEKAEFYMSCLVKHKRIHSREK [Y7E]: 3.7. Turning to DECEKANFYMSCLVKHKRIHSREK [Y7N], the protein stability index stood at 3.61. As for DECEKARFYMSCLVKHKRIHSREK [Y7R], the figure is 3.55.

Turning to DECEKAFFYMSCLVKHKRIHSREK [Y7F], the protein stability index was 2.88. As to DECEKAYFYMHCLVKHKRIHSREK [S11H], the protein stability index is 2.82.

As to DECEKAYFYMGCLVKHKRIHSREK [S11G], the protein stability index was 3.21. Turning to DECEKAYFYMECLVKHKRIHSREK [S11E], the protein stability index came out at 2.62. As to DECEKAYFYMQCLVKHKRIHSREK [S11Q], the protein stability index is 3.03. The same measure for DECEKAYFYMKCLVKHKRIHSREK [S11K]: 2; for DECEKAYFYMYCLVKHKRIHSREK [S11Y]: 2.68; for DECEKAYFYMTCLVKHKRIHSREK [S11T]: 2.94. As for DECEKAYFYMACLVKHKRIHSREK [S11A], the protein stability index worked out at 2.07. DECEKAYFYMNCLVKHKRIHSREK [S11N]: the protein stability index turned out to be 2.97. Consider DECEKAYFYMICLVKHKRIHSREK [S11I], for which the protein stability index turned out to be 1.76.

For DECEKAYFYMLCLVKHKRIHSREK [S11L], the protein stability index worked out at 1.74.

With DECEKAYFYMPCLVKHKRIHSREK [S11P], the protein stability index came out at 3.24. Regarding DECEKAYFYMRCLVKHKRIHSREK [S11R], the protein stability index was found to be 2.47. As for DECEKAYFYMCCLVKHKRIHSREK [S11C], the figure is 2.13.

On to DECEKAYFYMFCLVKHKRIHSREK [S11F], for which the protein stability index stood at 1.66. As for DECEKAYFYMWCLVKHKRIHSREK [S11W], the figure is 1.33; as for DECEKAYFYMVCLVKHKRIHSREK [S11V], 1.87.

For the variant DECEKAYFYMMCLVKHKRIHSREK [S11M], the protein stability index is 2.37.

DECEKAYFYMDCLVKHKRIHSREK [S11D]: the protein stability index stood at 3.55. As for DECEKAYFYESCLVKHKRIHSREK [M10E], the figure is 3.92. The same measure for DECEKAYFYFSCLVKHKRIHSREK [M10F]: 2.33; for DECEKAYFYASCLVKHKRIHSREK [M10A]: 3.61; for DECEKAYFYNSCLVKHKRIHSREK [M10N]: 4.14.

Turning to DECEKAYFYVSCLVKHKRIHSREK [M10V], the protein stability index worked out at 2.38. The same measure for DECEKAYFYDSCLVKHKRIHSREK [M10D]: 3.97; for DECEKAYFYLSCLVKHKRIHSREK [M10L]: 2.19.

For DECEKAYFYSSCLVKHKRIHSREK [M10S], the protein stability index is 3.19.

Consider DECEKAYFYWSCLVKHKRIHSREK [M10W], for which the protein stability index came to 2.36. As for DECEKAYFYHSCLVKHKRIHSREK [M10H], the figure is 3.47. DECEKAYFYKSCLVKHKRIHSREK [M10K]: the protein stability index turned out to be 3.74. The same measure for DECEKAYFYPSCLVKHKRIHSREK [M10P]: 3.16. As for DECEKAYFYCSCLVKHKRIHSREK [M10C], the figure is 2.75.

As for DECEKAYFYYSCLVKHKRIHSREK [M10Y], the protein stability index is 3.11. As for DECEKAYFYRSCLVKHKRIHSREK [M10R], the figure is 3.32; as for DECEKAYFYTSCLVKHKRIHSREK [M10T], 3.19. On to DECEKAYFYGSCLVKHKRIHSREK [M10G], for which the protein stability index was determined as 2.56. The same measure for DECEKAYFYQSCLVKHKRIHSREK [M10Q]: 4.12.

Take DECEKAYFYISCLVKHKRIHSREK [M10I]: the protein stability index worked out at 1.86. With DECEKAYFYMSCLDKHKRIHSREK [V14D], the protein stability index was determined as 3.73. As for DECEKAYFYMSCLLKHKRIHSREK [V14L], the protein stability index stood at 2.63. With DECEKAYFYMSCLAKHKRIHSREK [V14A], the protein stability index is 2.88. As for DECEKAYFYMSCLNKHKRIHSREK [V14N], the figure is 3.53. As for DECEKAYFYMSCLQKHKRIHSREK [V14Q], the figure is 3.05. With DECEKAYFYMSCLPKHKRIHSREK [V14P], the protein stability index worked out at 3.27. In the case of DECEKAYFYMSCLYKHKRIHSREK [V14Y], the protein stability index stood at 2.5. As for DECEKAYFYMSCLRKHKRIHSREK [V14R], the protein stability index came out at 3.12. As to DECEKAYFYMSCLFKHKRIHSREK [V14F], the protein stability index was 1.78.

For the variant DECEKAYFYMSCLHKHKRIHSREK [V14H], the protein stability index came to 3.86. Turning to DECEKAYFYMSCLSKHKRIHSREK [V14S], the protein stability index came out at 3.65. As for DECEKAYFYMSCLIKHKRIHSREK [V14I], the figure is 2.11; as for DECEKAYFYMSCLWKHKRIHSREK [V14W], 1.64. Consider DECEKAYFYMSCLGKHKRIHSREK [V14G], for which the protein stability index is 2.9. For the variant DECEKAYFYMSCLKKHKRIHSREK [V14K], the protein stability index was found to be 3.41. Regarding DECEKAYFYMSCLEKHKRIHSREK [V14E], the protein stability index is 3.38. As for DECEKAYFYMSCLTKHKRIHSREK [V14T], the figure is 3.09; as for DECEKAYFYMSCLCKHKRIHSREK [V14C], 2.33.
